Columns and labels:
[1] = biological target: T1, human FcγRIIIa F (allotype F158) extracellular domain (human, UniProt P08637 17-208); test: SPR Biacore 8K+; KD for FcγRIIb divided by KD for this FcγR
T1 construct: extracellular domain; also called hFcγRIIIaF
Description: (§1) The extracellular domains of FcγRs were produced by the method described in WO2014104165. The interaction between the produced antibodies and human FcγRs was analyzed using Biacore 8K+by the method below. For the running buffer, 50 mM Na-Phosphate, 150 mM NaCl, and 0.05% Tween20 (pH 7.4) was used, and measurement was performed at 25° C. The sensor chip used was a Series S SA chip (GE Healthcare) onto which CaptureSelect Human Fab-kappa Kinetics Biotin Conjugate (Thermo Fisher Scientific) was immobilized. An antibody of interest was captured onto this chip, and each FcγR diluted with the running buffer was allowed to interact with it. The chip was regenerated using 10 mM Glycine-HCl (pH 1.5), and repeatedly used to capture antibodies and perform measurement. The dissociation constants KD (mol/L) of each antibody for FcγRs were calculated using Biacore Insight Evaluation Software, with a steady state affinity model for the dissociation constant for FcγRIIb and a 1:1 Langmuir binding model for the dissociation constants for the other FcγRs (Table 2).

[2] = biological target: T2, human FcγRIIIa V (allotype V158) extracellular domain (human, UniProt P08637 17-208); test: as above
T2 construct: extracellular domain; also called hFcγRIIIaV
T2 sequence (P08637 17-208 F176V): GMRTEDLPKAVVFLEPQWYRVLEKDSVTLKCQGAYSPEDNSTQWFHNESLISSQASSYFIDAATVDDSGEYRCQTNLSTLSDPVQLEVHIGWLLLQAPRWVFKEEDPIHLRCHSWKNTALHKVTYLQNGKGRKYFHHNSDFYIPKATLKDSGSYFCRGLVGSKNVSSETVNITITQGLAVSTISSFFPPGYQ
Description: as §1

T1 sequence (P08637 17-208): as the sequence (P08637 17-208 F176V) above, with V160F counted along it

B1: EGL-ART6 (H240-Kn462/L73-k0//H240-HI445/L73-k0) (antibody, human IgG1, kappa)
heavy 1: QDQLVQSGAEVKKPGASVKVSCKASGFNIKDTYIQWVRQAPGQGLEWMGRIDPLRKQTKYREKFEGRVTITADTSTNTAYMELSSLRSEDTAVYYCVRSGREFDYWGQGTLVTVSSASTKGPSVFPLAPSSKSTSGGTAALGCLVKDYFPEPVTVSWNSGALTSGVHTFPAVLQSSGLYSLSSVVTVPSSSLGTQTYICNVNHKPSNTKVDKKVEPKSCDKTHTCPPCPAPEFQWGPMVFLFPPKPKDVLMISRTPEVTCVVVDVSDEEPEVKFNWYVDGVEVHNAKTKPREEQYNATYRVVSVLPVLHQDWLNGKEYKCKVSNDALPAPIEKTISKAKGQPREPQVCTLPPSRDELTKNQVSLWCLVKGFYPSDIAVEWESNGQPENNYKTTPPVLDSDGSFFLYSKLTVDKSRWQQGNVFSCSVMHEALHNHYTQKSLSLSP
heavy 2: QDQLVQSGAEVKKPGASVKVSCKASGFNIKDTYIQWVRQAPGQGLEWMGRIDPLRKQTKYREKFEGRVTITADTSTNTAYMELSSLRSEDTAVYYCVRSGREFDYWGQGTLVTVSSASTKGPSVFPLAPSSKSTSGGTAALGCLVKDYFPEPVTVSWNSGALTSGVHTFPAVLQSSGLYSLSSVVTVPSSSLGTQTYICNVNHKPSNTKVDKKVEPKSCDKTHTCPPCPAPELLAGPSVFLFPPKPKDVLMISRTPEVTCVVVDVSHEEPEVKFNWYVDGVEVHNAKTKPREEQYNATYRVVSVLPVLHQDWLNGKEYKCKVSNDALPKPDEETISKAKGQPREPQVYTLPPSRCELTKNQVSLSCAVKGFYPSDIAVEWESNGQPENNYKTTPPVLDSDGSFFLVSKLTVDKSRWQQGNVFSCSVMHEALHNHYTQKSLSLSP
light: DIQMTQSPSSLSASVGDRVTITCRASQDIHKYIAWYQQKPGQAPRLLIQYTSTLQPGVPSRFSGSGSGTDYTFTISSLQPEDIATYYCLQYEQLRTFGGGTKVEIKRTVAAPSVFIFPPSDEQLKSGTASVVCLLNNFYPREAKVQWKVDNALQSGNSQESVTEQDSKDSTYSLSSTLTLSKADYEKHKVYACEVTHQGLSSPVTKSFNRGEC
notes: Anti-human Epiregulin IgG1 with heterodimeric (knobs-into-holes) Fc variant
A/I ratio (KD for FcγRIIb divided by KD for each FcγR) [1]: 975
A/I ratio (KD for FcγRIIb divided by KD for each FcγR) [2]: 2030

— patent US20230416371A1 (Chugai, published 2023)
